From US20260317411 (published 2026) come the findings set out here.

In the test the target is T1, VEGF (UniProt P15692).
T1 chain: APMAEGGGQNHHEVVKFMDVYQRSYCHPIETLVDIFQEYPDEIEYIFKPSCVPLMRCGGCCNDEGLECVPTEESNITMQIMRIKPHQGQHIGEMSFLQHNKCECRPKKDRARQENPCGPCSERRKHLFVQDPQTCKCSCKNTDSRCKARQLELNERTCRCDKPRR
Nature of the test: SPR.

B1: scFv1 (antibody)
chain: DIQLTQSPSSLSASVGDRVTITCSASQDISNYLNWYQQKPGKAPKVLIYFTSSLHSGVPSRFSGSGSGTDFTLTISSLQPEDEATYYCQQYSTVPWTFGQGTKVEIKGGGSGGGSGGGSGGGSGGGSEVQLVESGGGLVQPGGSLRLSCAASGYDFTHYGMNWVRQAPGKGLEWVGWINTYTGEPTYAADFKRRFTFSLDTSKSTAYLQMNSLRAEDTAVYYCAKYPYYYGTSHWYFDVWGQGTLVTVSS
A word on the Kd: it is a measure of binding affinity in units of concentration. High values mean a looser complex, low ones a tighter complex. In the case of B1, the Kd came to 0.0205 nM.

B2: scFv3 (antibody)
chain: DIQLTQSPSSLMASVGDRVTITCSASQDISNYLNWYQQKPGKAPKVLIYFTSSLHSGVPSRFSGSGSGTDFTLTISSLQPEDEATYYCQQYSTVPWTFGQGTKVEIKGGGSGGGSGGGSGGGSGGGSEVQLVESGGGLVQPGGSLRLSCAASGYDFTHYGMNWVRQAPGKGLEWVGWINTYTGEPTYAADFKRRFTFSLDTSKSTAYLQMNSLRAEDTAVYYCAKYPYYYGTSHWYFDVWGQGTLVTVSS
On to B2, for which the affinity, expressed as Kd, was 0.0236 nM.
